In patent publication US20110263454A1, “Methods of Identifying Functional Characteristics of Promoters, Transcription Modifying Proteins and Transcription Modulating Agents” (Salk Institute for Biological Studies, priority 2008, published 2011):

B1: CAR: Constitutive Androstane Receptor (NR1I3), cDNA driver (protein, UniProt Q14994 1-352, looked up)
Nuclear receptor subfamily 1 …: MASREDELRNCVVCGDQATGYHFNALTCEGCKGFFRRTVSKSIGPTCPFAGSCEVSKTQRRHCPACRLQKCLDAGMRKDMILSAEALALRRAKQAQRRAQQTPVQLSKEQEELIRTLLGAHTRHMGTMFEQFVQFRPPAHLFIHHQPLPTLAPVLPLVTHFADINTFMVLQVIKFTKDLPVFRSLPIEDQISLLKGAAVEICHIVLNTTFCLQTQNFLCGPLRYTIEDGARVSPTVGFQVEFLELLFHFHGTLRKLQLQEPEYVLLAAMALFSPDRPGVTQRDEIDQLQEEMALTLQSYIKGQQRRPRDRFLYAKLLGLLAELRSINEAYGYQIQHIQGLSAMMPLLQEICS
B2: PPARd: Peroxisome proliferator activated receptor δ (NR1C2), cDNA driver (protein, UniProt Q03181 1-441, looked up)
Peroxisome …: MEQPQEEAPEVREEEEKEEVAEAEGAPELNGGPQHALPSSSYTDLSRSSSPPSLLDQLQMGCDGASCGSLNMECRVCGDKASGFHYGVHACEGCKGFFRRTIRMKLEYEKCERSCKIQKKNRNKCQYCRFQKCLALGMSHNAIRFGRMPEAEKRKLVAGLTANEGSQYNPQVADLKAFSKHIYNAYLKNFNMTKKKARSILTGKASHTAPFVIHDIETLWQAEKGLVWKQLVNGLPPYKEISVHVFYRCQCTTVETVRELTEFAKSIPSFSSLFLNDQVTLLKYGVHEAIFAMLASIVNKDGLLVANGSGFVTREFLRSLRKPFSDIIEPKFEFAVKFNALELDDSDLALFIAAIILCGDRPGLMNVPRVEAIQDTILRALEFHLQANHPDAQYLFPKLLQKMADLRQLVTEHAQMMQRIKKTETETSLHPLLQEIYKDMY
B3: FXR: Farnesoid X Receptor (NR1H4), cDNA driver (protein, UniProt Q96RI1 1-486, looked up)
Bile acid receptor: MVMQFQGLENPIQISPHCSCTPSGFFMEMMSMKPAKGVLTEQVAGPLGQNLEVEPYSQYSNVQFPQVQPQISSSSYYSNLGFYPQQPEEWYSPGIYELRRMPAETLYQGETEVAEMPVTKKPRMGASAGRIKGDELCVVCGDRASGYHYNALTCEGCKGFFRRSITKNAVYKCKNGGNCVMDMYMRRKCQECRLRKCKEMGMLAECMYTGLLTEIQCKSKRLRKNVKQHADQTVNEDSEGRDLRQVTSTTKSCREKTELTPDQQTLLHFIMDSYNKQRMPQEITNKILKEEFSAEENFLILTEMATNHVQVLVEFTKKLPGFQTLDHEDQIALLKGSAVEAMFLRSAEIFNKKLPSGHSDLLEERIRNSGISDEYITPMFSFYKSIGELKMTQEEYALLTAIVILSPDRQYIKDREAVEKLQEPLLDVLQKLCKIHQPENPQHFACLLGRLTELRTFNHHHAEMLMSWRVNDHKFTPLLCEIWDVQ
B4: RARg: Retinoic acid receptor γ (NR1B3), nuclear hormone receptor cDNA driver (protein, UniProt P13631 1-454, looked up)
Retinoic acid receptor gamma: MATNKERLFAAGALGPGSGYPGAGFPFAFPGALRGSPPFEMLSPSFRGLGQPDLPKEMASLSVETQSTSSEEMVPSSPSPPPPPRVYKPCFVCNDKSSGYHYGVSSCEGCKGFFRRSIQKNMVYTCHRDKNCIINKVTRNRCQYCRLQKCFEVGMSKEAVRNDRNKKKKEVKEEGSPDSYELSPQLEELITKVSKAHQETFPSLCQLGKYTTNSSADHRVQLDLGLWDKFSELATKCIIKIVEFAKRLPGFTGLSIADQITLLKAACLDILMLRICTRYTPEQDTMTFSDGLTLNRTQMHNAGFGPLTDLVFAFAGQLLPLEMDDTETGLLSAICLICGDRMDLEEPEKVDKLQEPLLEALRLYARRRRPSQPYMFPRMLMKITDLRGISTKGAERAITLKMEIPGPMPPLIREMLENPEMFEDDSSQPGPHPNASSEDEVPGGQGKGGLKSPA
B5: RXRb: Retinoic X Receptor β (NR2B2), cDNA driver (protein, UniProt P28702 1-533, looked up)
Retinoic acid receptor …: MSWAARPPFLPQRHAAGQCGPVGVRKEMHCGVASRWRRRRPWLDPAAAAAAAVAGGEQQTPEPEPGEAGRDGMGDSGRDSRSPDSSSPNPLPQGVPPPSPPGPPLPPSTAPSLGGSGAPPPPPMPPPPLGSPFPVISSSMGSPGLPPPAPPGFSGPVSSPQINSTVSLPGGGSGPPEDVKPPVLGVRGLHCPPPPGGPGAGKRLCAICGDRSSGKHYGVYSCEGCKGFFKRTIRKDLTYSCRDNKDCTVDKRQRNRCQYCRYQKCLATGMKREAVQEERQRGKDKDGDGEGAGGAPEEMPVDRILEAELAVEQKSDQGVEGPGGTGGSGSSPNDPVTNICQAADKQLFTLVEWAKRIPHFSSLPLDDQVILLRAGWNELLIASFSHRSIDVRDGILLATGLHVHRNSAHSAGVGAIFDRVLTELVSKMRDMRMDKTELGCLRAIILFNPDAKGLSNPSEVEVLREKVYASLETYCKQKYPEQQGRFAKLLLRLPALRSIGLKCLEHLFFFKLIGDTPIDTFLMEMLEAPHQLA
B6: PXR: Pregnane X Receptor (NR1I2), cDNA driver (protein, UniProt O75469 1-434, looked up)
Nuclear receptor subfamily 1 …: MEVRPKESWNHADFVHCEDTESVPGKPSVNADEEVGGPQICRVCGDKATGYHFNVMTCEGCKGFFRRAMKRNARLRCPFRKGACEITRKTRRQCQACRLRKCLESGMKKEMIMSDEAVEERRALIKRKKSERTGTQPLGVQGLTEEQRMMIRELMDAQMKTFDTTFSHFKNFRLPGVLSSGCELPESLQAPSREEAAKWSQVRKDLCSLKVSLQLRGEDGSVWNYKPPADSGGKEIFSLLPHMADMSTYMFKGIISFAKVISYFRDLPIEDQISLLKGAAFELCQLRFNTVFNAETGTWECGRLSYCLEDTAGGFQQLLLEPMLKFHYMLKKLQLHEEEYVLMQAISLFSPDRPGVLQHRVVDQLQEQFAITLKSYIECNRPQPAHRFLFLKIMAMLTELRSINAQHTQRLLRIQDIHPFATPLMQELFGITGS

What was measured:
mCAR promoter = test: NHR-promoter luciferase screen, mCAR promoter; assay type: cell-based, mouse; details: for luciferase activity normalized to lacZ activity and to a control, mCAR: mCAR promoter-luciferase, CV-1 cells, NHR +/- ligand, control = 1.00; for Luc. act., normalized to lacZ / Normalized Luc. act., normalized to control: mCAR promoter, HR/ligand component
How it was run: (§1)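 CV-1 cells were co-transfected with 50 ng NHR (homodimer or NHR/RXR heterodimer), 100 ng promoter-luciferase construct and 50 ng LacZ. Luciferase was normalized to LacZ and to a no-NHR/no-ligand control.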

hCAR promoter = test: NHR-promoter luciferase screen, hCAR promoter; assay type: cell-based, human; details: for luciferase activity normalized to lacZ activity and to a control, hCAR: hCAR promoter-luciferase, CV-1 cells, NHR +/- ligand, control = 1.00; for Luc. act., normalized to lacZ / Normalized Luc. act., normalized to control: hCAR promoter, HR/ligand component
How it was run: as §1

mUCP2 promoter = test: NHR-promoter luciferase screen, mUCP2 promoter; assay type: cell-based, mouse; details: for Luc. act., normalized to lacZ / Normalized Luc. act., normalized to control: mUCP2 promoter reporter, co-transfected HR, with or without its ligand; for Normalized Luc. act., normalized to control: relative to control; for luciferase activity normalized to lacZ activity and to a control, mUCP2: mUCP2 promoter-luciferase, CV-1 cells, NHR +/- ligand, control = 1.00
How it was run: as §1

mNPY promoter = test: NHR-promoter luciferase screen, mNPY promoter; assay type: cell-based, mouse; details: for Results of assays of transcription factor (+/- ligand) with mNPY: Table 6d, luciferase activity relative to control (control = 1.00); for Luc. act., normalized to lacZ / Normalized Luc. act., normalized to control: mNPY promoter, HR component with or without ligand; for Normalized Luc. act., normalized to control: relative to control
How it was run: as §1

mAdiponectin promoter = test: NHR-promoter luciferase screen, mAdiponectin promoter; assay type: cell-based, mouse; details: for Luc. act., normalized to lacZ / Normalized Luc. act., normalized to control: Adiponectin, HR component without or with its ligand; for mAdiponectin promoter reporter activity: transcription factor +/- ligand, control = 1.00
How it was run: as §1

Bmal1 promoter = test: NHR-promoter luciferase screen, Bmal1 promoter; assay type: cell-based, mouse; details: for Luc. act., normalized to lacZ / Normalized Luc. act., normalized to control: Bmal1 promoter, HR component without or with ligand; for mBmal1 promoter reporter activity: transcription factor +/- ligand, control = 1.00
How it was run: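 Luciferase activity was measured 48 h after transfection, normalized to LacZ and then to a control lacking NHR or ligand. CV-1 cells carried 100 ng Bmal1 reporter, 50 ng NHR construct and 50 ng LacZ.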

Molecule	luciferase activity normalized to lacZ activity and to a control, mCAR (mCAR promoter)	Luc. act., normalized to lacZ (mCAR promoter)	Normalized Luc. act., normalized to control (mCAR promoter)	luciferase activity normalized to lacZ activity and to a control, hCAR (hCAR promoter)	Luc. act., normalized to lacZ (hCAR promoter)	Normalized Luc. act., normalized to control (hCAR promoter)	Luc. act., normalized to lacZ (mUCP2 promoter)	Normalized Luc. act., normalized to control (mUCP2 promoter)	luciferase activity normalized to lacZ activity and to a control, mUCP2 (mUCP2 promoter)	Results of assays of transcription factor (+/- ligand) with mNPY (mNPY promoter)	Luc. act., normalized to lacZ (mNPY promoter)	Normalized Luc. act., normalized to control (mNPY promoter)	Luc. act., normalized to lacZ (mAdiponectin promoter)	Normalized Luc. act., normalized to control (mAdiponectin promoter)	mAdiponectin promoter reporter activity (mAdiponectin promoter)	Luc. act., normalized to lacZ (Bmal1 promoter)	Normalized Luc. act., normalized to control (Bmal1 promoter)	mBmal1 promoter reporter activity (Bmal1 promoter)
B1	0.51	19.41	0.5	0.82	25.9	0.8	151.6	1.4	1.38	0.88	74.2	0.9	46.8	0.7	0.74	16.4	1.1	1.05
B2	0.79	30.1	0.8	1.22	38.6	1.2	172.7	1.6	1.57	0.70	58.5	0.7	89.4	1.4	1.42	11.2	0.7	0.72
B3	0.88	33.6	0.9	0.78	24.6	0.8	111.6	1.0	1.02	0.92	77.7	0.9	62.6	1.0	1.00	15.6	1.0	1.00
B4	1.24	47.1	1.2	0.99	31.4	1.0	242.5	2.2	2.21	1.20	100.5	1.2	62.6	1.0	1.00	19.1	1.2	1.22
B5	1.27	48.6	1.3	0.95	30.1	1.0	87.7	0.8	0.80	0.80	66.9	0.8	71.8	1.1	1.14	12.5	0.8	0.80
B6	1.49	56.8	1.5	1.16	36.5	1.2	119.1	1.1	1.08	0.83	69.8	0.8	97.1	1.5	1.55	31.2	2.0	2.00
